One experiment has as its target T1, head-rod domain of NFL (Homo sapiens, UniProt P07196).
T1 construct: made in house; host or cells: bacteria (bacterially synthesized)
T1 sequence (P07196 1-349): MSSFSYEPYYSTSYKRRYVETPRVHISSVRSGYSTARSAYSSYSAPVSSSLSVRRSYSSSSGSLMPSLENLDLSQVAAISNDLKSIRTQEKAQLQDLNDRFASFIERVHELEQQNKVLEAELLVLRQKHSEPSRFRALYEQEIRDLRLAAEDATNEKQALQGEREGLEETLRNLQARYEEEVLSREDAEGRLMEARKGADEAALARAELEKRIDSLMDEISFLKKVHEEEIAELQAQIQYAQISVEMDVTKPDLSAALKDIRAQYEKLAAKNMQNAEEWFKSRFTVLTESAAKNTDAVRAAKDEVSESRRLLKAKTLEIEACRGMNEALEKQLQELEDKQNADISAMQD
The experiment is described as follows: In vitro binding of in vitro translated PKN to GST-NFL. To be noted: GST pull-down. An excerpt:
For in vitro transcription, truncated human PKN was made as follows; Expression vector pPKNN2 for N-terminal region of PKN (the amino acid sequence 1-474 in SEQ ID NO: 1, this region was designated as “PKNN2”) was made by digesting phPKN-H4 (a plasmid containing human PKN cDNA in pBluescript II SK (Mukai, H. & Ono, Y., Biochem. Biophys. Res. Commun. 199, 897-904 (1994)) with Bst EII, and filling in the ends with T4 DNA polymerase, and self-legation. This removed the original amino acid sequences C-terminal downstream of the BstEII site (1425 nucleotides from initiating ATG codon), and a stop codon was created in the plasmid sequence. Fragment coding for the amino acid sequence 614-942 in SEQ ID NO: 1, (This region was designated as “PKNC2”) containing the conserved catalytic domain of human PKN was made by PCR amplification. Expression vector pPKNC2 was made by subcloning this fragment into pRc/CMV (Invitfrogen Corp.). These plasmids were linealized by cutting with XbaI, and CRNA was transcribed using T7 RNA polymerase. For NFL, pBL (Nakagawa, T. et al., J. Cell. Biol. 129, 411-429 (1995)) was linealized by cutting with HindIII, and CRNA was transcribed using T3 RNA polymerase. For in vitro translation, these cRNAs were translated in rabbit reticulocyte lysate (Promega) in the presence of [^35S] methionine. […]

For experiment [1], the system named is head-rod domain of vimentin. The experiment is described as follows: Yeast two-hybrid, PKN N-terminal region with vimentin. The class given is binding. The conditions noted are these: data not shown. The text has this:
Specificity of the interaction between PKN and various NFs was investigated by measuring the ability of the two-hybrid constructs, pBTM116(Vojtek, A. B. et al., Cell, 74, 205-214 (1993)) (instead of pGBT9)-PKN and pVP16 (Vojtek, A. B. et al., Cell, 74, 205-214 (1993)) (instead of pGAD10)-NF or in reverse, to support lacZ expression in L40 cells.
To determine whether N-terminal region of PKN binds to NFM or NFH as well as NFL, corresponding region to the head-rod domain of NFM or NFH was ligated to pVP16 and lacZ expression was measured in two-hybrid system. The N-terminal region of PKN bound to each head-rod domain of NF subunit (FIG. 11(B)), and also interacted with the corresponding head-rod domain of vimentin, a ubiquitously expressed member of intermediate filament, in two-hybrid system (data not shown).

With “N-terminal region of PKN: N-terminal regulatory region of human PKN: 1-540 (PKNN1) in two-hybrid and GST fusions, 1-474 when in vitro translated”, the “binding to head-rod domain of NFL in vitro” value with head-rod domain of NFL is “bound”. The “interaction with head-rod domain of vimentin in two-hybrid system” value in experiment [1] is given as “interacted”.

(Values after US6660837B1, “Modified protein derived from protein kinase N” (Kirin Beer Kabushiki Kaisha, priority 1995, dated 2003).)
